Source: patent US20260000597A1 (priority 2018, published 2026)

Target: AchR (Homo sapiens, UniProt P02708)
Assay: ELISA of screened peptide phages on AchR versus streptavidin (OD450)
Format: binding
Conditions: absorbance at 450 nm
Outline: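 Reported as the ratio of AchR to streptavidin OD450, with TMB read-out after HRP anti-M13 detection. Wells coated with 5 μg/ml target overnight at 4 °C and BSA-blocked, then incubated 1 h at 30 °C with helper-rescued phage from individual plaques.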

[1] = ELISA of selected 14-mer (L3) peptide phages on AchR, Spep-2 positive control
[2] = phage ELISA, 5 μg/ml AchR, 4th and 5th round biopanning phages
[3] = ELISA of selected 11-mer (L2) peptide phages on AchR, Spep-2 positive control

Chain of AchR (P02708 21-457): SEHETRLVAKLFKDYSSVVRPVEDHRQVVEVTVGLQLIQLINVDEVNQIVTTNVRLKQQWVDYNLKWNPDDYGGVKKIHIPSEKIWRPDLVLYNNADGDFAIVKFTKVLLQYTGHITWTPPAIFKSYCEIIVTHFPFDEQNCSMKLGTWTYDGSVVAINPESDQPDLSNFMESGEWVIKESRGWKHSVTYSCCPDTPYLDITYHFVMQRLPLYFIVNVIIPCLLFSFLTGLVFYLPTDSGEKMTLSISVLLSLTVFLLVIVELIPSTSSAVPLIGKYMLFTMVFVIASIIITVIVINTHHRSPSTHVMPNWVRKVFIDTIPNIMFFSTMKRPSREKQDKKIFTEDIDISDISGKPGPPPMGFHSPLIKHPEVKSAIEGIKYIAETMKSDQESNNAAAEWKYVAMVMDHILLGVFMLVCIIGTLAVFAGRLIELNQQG

## L3-88 (PETRHRKMFIRDFW; AchR binding peptide) [Peptide L3-88]
[1]
  OD: 0.7

## KFRRQSTR [Peptide L1-139]
[2]
  OD: 0.456

## L2-194 (HLEKHRRCEFK; AchR binding peptide) [Peptide L2-194]
[3]
  OD: 0.693

## RQRKSMQR [Peptide L1-27]
[2]
  OD: 0.662

## L2-75 (YILRDKKVPLK; AchR binding peptide) [Peptide L2-75]
[3]
  OD: 0.539

## REKKYAYK [Peptide L1-181]
[2]
  OD: 0.589

## L2-91 (PIDKFKRGMVR; AchR binding peptide) [Peptide L2-91]
[3]
  OD: 0.517

## L3-7 (EGDKFRRHDIKYNF; AchR binding peptide) [Peptide L3-7]
[1]
  OD: 0.803

## L2-199 (EICKNRKPANR; AchR binding peptide) [Peptide L2-199]
[3]
  OD: 0.716

## L2-51 (SLYRQKRHDYK; AchR binding peptide) [Peptide L2-51]
[3]
  OD: 0.653

## KEKRAVHK [Peptide L1-48]
[2]
  OD: 0.519

## L3-112 (ALPRVRKDSHREEI; AchR binding peptide) [Peptide L3-112]
[1]
  OD: 0.731

## GGGRKKRRQRRRGG [Peptide L3-201, reference compound]
[2]
  OD: 0.315

## L3-102 (IMVKIRRCPARPLC; AchR binding peptide) [Peptide L3-102]
[1]
  OD: 0.581

## L3-122 (MHPRPRKMSHKMSC; AchR binding peptide) [Peptide L3-122]
[1]
  OD: 0.691

## L3-46 (SAHKKRKQTLRCSE; AchR binding peptide) [Peptide L3-46]
[1]
  OD: 0.618

## RVKKAETR [Peptide L1-92]
[2]
  OD: 0.581

## RDRKFVQK [Peptide L1-154]
[2]
  OD: 0.633

## KLKRAMLK [Peptide L1-169]
[2]
  OD: 0.636

## L3-169 (FHMKSKKDGDKFVM; AchR binding peptide) [Peptide L3-169]
[1]
  OD: 0.783

## RQKKDNQK [Peptide L1-26]
[2]
  OD: 0.647

## KMRRWWLK [Peptide L1-190]
[2]
  OD: 0.644

## L3-42 (ETNRTRKQCYKTTF; AchR binding peptide) [Peptide L3-42]
[1]
  OD: 0.71

## L2-146 (LIGKFKKPFYR; AchR binding peptide) [Peptide L2-146]
[3]
  OD: 0.605

## L3-47 (LYEKYKKHNNREDD; AchR binding peptide) [Peptide L3-47]
[1]
  OD: 0.558

## L2-11 (GIPKYRRGCSR; AchR binding peptide) [Peptide L2-11]
[3]
  OD: 0.791

## L2-85 (VFVKWRRQMMR; AchR binding peptide) [Peptide L2-85]
[3]
  OD: 0.768

## KNKRTPVK [Peptide L1-86]
[2]
  OD: 0.551

## L3-65 (CLEKLRKAVHRQRR; AchR binding peptide) [Peptide L3-65]
[1]
  OD: 0.731

## L3-180 (QGIRPRKHLQRMPN; AchR binding peptide) [Peptide L3-180]
[1]
  OD: 0.7

## L3-113 (CLFKYRKSCVRLCG; AchR binding peptide) [Peptide L3-113]
[1]
  OD: 0.766

## L3-64 (HEIKQKKYFHRGHD; AchR binding peptide) [Peptide L3-64]
[1]
  OD: 0.799

## L2-28 (CIWKSKRSPAK; AchR binding peptide) [Peptide L2-28]
[3]
  OD: 0.762

## L3-56 (QISKLKRPSYRGDD; AchR binding peptide) [Peptide L3-56]
[1]
  OD: 0.703

## RGKRHWHR [Peptide L1-179]
[2]
  OD: 0.633

## KIKKAARR [Peptide L1-35]
[2]
  OD: 0.556

## KQRKPHGR [Peptide L1-67]
[2]
  OD: 0.593

## L2-93 (FNPKMRKVCLR; AchR binding peptide) [Peptide L2-93]
[3]
  OD: 0.635

## L3-40 (ASPKGRRPTFRPQH; AchR binding peptide) [Peptide L3-40]
[1]
  OD: 0.733

## L3-183 (NMARSRKNECKYIA; AchR binding peptide) [Peptide L3-183]
[1]
  OD: 0.768

## L3-128 (IVNRAKRSQIRFDV; AchR binding peptide) [Peptide L3-128]
[1]
  OD: 0.523

## L2-68 (GPDKSRRNLHR; AchR binding peptide) [Peptide L2-68]
[3]
  OD: 0.721

## L2-69 (WCCKTKRAVMK; AchR binding peptide) [Peptide L2-69]
[3]
  OD: 0.676

## L2-26 (APWRLKRAPQR; AchR binding peptide) [Peptide L2-26]
[3]
  OD: 0.809

## L2-113 (QNDKDRKLSHR; AchR binding peptide) [Peptide L2-113]
[3]
  OD: 0.64

## L2-147 (TWCKHKKLDMK; AchR binding peptide) [Peptide L2-147]
[3]
  OD: 0.641

## L2-191 (PDSRLKKHEAK; AchR binding peptide) [Peptide L2-191]
[3]
  OD: 0.689

## KDKKMPQR [Peptide L1-185]
[2]
  OD: 0.55

## L3-41 (GWLKAKRFPSRPPT; AchR binding peptide) [Peptide L3-41]
[1]
  OD: 0.81

## KYRRNLVR [Peptide L1-56]
[2]
  OD: 0.468

## L2-58 (ANPKNRKDNLR; AchR binding peptide) [Peptide L2-58]
[3]
  OD: 0.701

## L2-145 (MNEKPKKNDQK; AchR binding peptide) [Peptide L2-145]
[3]
  OD: 0.468

## RWKKNINK [Peptide L1-80]
[2]
  OD: 0.631

## KPRRPDTR [Peptide L1-109]
[2]
  OD: 0.542

## L2-76 (PWVRIRKMASR; AchR binding peptide) [Peptide L2-76]
[3]
  OD: 0.725

## L3-45 (PGNRMKKYQNRVHG; AchR binding peptide) [Peptide L3-45]
[1]
  OD: 0.735

## L3-156 (IVPRDRKQALRWTN; AchR binding peptide) [Peptide L3-156]
[1]
  OD: 0.799

## L2-65 (PLWKTRKIEPR; AchR binding peptide) [Peptide L2-65]
[3]
  OD: 0.731

## RNRKIPLK [Peptide L1-44]
[2]
  OD: 0.59

## RIRRHMYR [Peptide L1-83]
[2]
  OD: 0.621

## KDKRWANR [Peptide L1-77]
[2]
  OD: 0.636

## L2-176 (WWHKHRRAQSK; AchR binding peptide) [Peptide L2-176]
[3]
  OD: 0.574

## L3-172 (VTGKGRRVTFRCMN; AchR binding peptide) [Peptide L3-172]
[1]
  OD: 0.634

## KSRRMWGR [Peptide L1-183]
[2]
  OD: 0.605

## L2-22 (MMMRHKRCQYR; AchR binding peptide) [Peptide L2-22]
[3]
  OD: 0.75

## L2-192 (EHVKLKRLDFR; AchR binding peptide) [Peptide L2-192]
[3]
  OD: 0.685

## RFRKMIPK [Peptide L1-115]
[2]
  OD: 0.451

## L2-200 (QGMKLKRIWSK; AchR binding peptide) [Peptide L2-200]
[3]
  OD: 0.744

## RHKKFIEK [Peptide L1-59]
[2]
  OD: 0.479

## L3-131 (YTPKFRRIFWRIID; AchR binding peptide) [Peptide L3-131]
[1]
  OD: 0.655

## RPKKHQER [Peptide L1-158]
[2]
  OD: 0.605

## RNKRMDGK [Peptide L1-157]
[2]
  OD: 0.585

## L2-39 (LMTKNRRNSFR; AchR binding peptide) [Peptide L2-39]
[3]
  OD: 0.669

## L2-21 (MVMKWKRWNQR; AchR binding peptide) [Peptide L2-21]
[3]
  OD: 0.719

## L3-12 (DPPKKRKSLLRRVS; AchR binding peptide) [Peptide L3-12]
[1]
  OD: 0.882

## KNRRADCR [Peptide L1-140]
[2]
  OD: 0.381

## L2-25 (RLERPRRELTK; AchR binding peptide) [Peptide L2-25]
[3]
  OD: 0.842

## L2-171 (YGTRPKKYVSK; AchR binding peptide) [Peptide L2-171]
[3]
  OD: 0.689

## L3-175 (TCHKTKRSIMRATS; AchR binding peptide) [Peptide L3-175]
[1]
  OD: 0.768

## L2-104 (PEDRQRKTWFK; AchR binding peptide) [Peptide L2-104]
[3]
  OD: 0.563

## L2-99 (CSLRARKEEWR; AchR binding peptide) [Peptide L2-99]
[3]
  OD: 0.52

## KMRKGWDK [Peptide L1-138]
[2]
  OD: 0.373

## L2-102 (YTSRCKKQPRK; AchR binding peptide) [Peptide L2-102]
[3]
  OD: 0.608

## L2-154 (NPFKYKKICPK; AchR binding peptide) [Peptide L2-154]
[3]
  OD: 0.736

## KAKRDYLR [Peptide L1-145]
[2]
  OD: 0.54

## KSKRHHEK [Peptide L1-69]
[2]
  OD: 0.474

## KAKRGHFK [Peptide L1-68]
[2]
  OD: 0.55

## RHKKSPWK [Peptide L1-5]
[2]
  OD: 0.657

## KFKKSAPR [Peptide L1-136]
[2]
  OD: 0.392

## RARKLHNR [Peptide L1-103]
[2]
  OD: 0.55

## KHKKQNVR [Peptide L1-18]
[2]
  OD: 0.627

## KWKKMMER [Peptide L1-81]
[2]
  OD: 0.63

## L3-94 (PVLKLRKGRVRAQP; AchR binding peptide) [Peptide L3-94]
[1]
  OD: 0.61

## L3-142 (LQCKYRRGSDKTVV; AchR binding peptide) [Peptide L3-142]
[1]
  OD: 0.502

## L3-171 (LDTKNRRGASKWDY; AchR binding peptide) [Peptide L3-171]
[1]
  OD: 0.629

## L3-101 (QPWRQKKFWCRCWG; AchR binding peptide) [Peptide L3-101]
[1]
  OD: 0.758

## KHKRTAQR [Peptide L1-78]
[2]
  OD: 0.642

## L2-7 (WQMKTKKEIWK; AchR binding peptide) [Peptide L2-7]
[3]
  OD: 0.753

## L3-82 (HMCRSKRVAWKNLI; AchR binding peptide) [Peptide L3-82]
[1]
  OD: 0.783

## L2-9 (ATCKPKRPWYK; AchR binding peptide) [Peptide L2-9]
[3]
  OD: 0.721
